B1: General transcription factor IIE subunit 1 (Homo sapiens), P29083 (parent)
chain: MADPDVLTEVPAALKRLAKYVIRGFYGIEHALALDILIRNSCVKEEDMLELLKFDRKQLRSVLNNLKGDKFIKCRMRVETAADGKTTRHNYYFINYRTLVNVVKYKLDHMRRRIETDERDSTNRASFKCPVCSSTFTDLEANQLFDPMTGTFRCTFCHTEVEEDESAMPKKDARTLLARFNEQIEPIYALLRETEDVNLAYEILEPEPTEIPALKQSKDHAATTAGAASLAGGHHREAWATKGPSYEDLYTQNVVINMDDQEDLHRASLEGKSAKERPIWLRESTVQGAYGSEDMKEGGIDMDAFQEREEGHAGPDDNEEVMRALLIHEKKTSSAMAGSVGAAAPVTAANGSDSESETSESDDDSPPRPAAVAVHKREEDEEEDDEFEEVADDPIVMVAGRPFSYSEVSQRPELVAQMTPEEKEAYIAMGQRMFEDLFE

Variants of: B1
Details: with tf2h1_human GTF2H1, P32780
tf2h1_human GTF2H1, P32780, sequence (P32780 whole entry): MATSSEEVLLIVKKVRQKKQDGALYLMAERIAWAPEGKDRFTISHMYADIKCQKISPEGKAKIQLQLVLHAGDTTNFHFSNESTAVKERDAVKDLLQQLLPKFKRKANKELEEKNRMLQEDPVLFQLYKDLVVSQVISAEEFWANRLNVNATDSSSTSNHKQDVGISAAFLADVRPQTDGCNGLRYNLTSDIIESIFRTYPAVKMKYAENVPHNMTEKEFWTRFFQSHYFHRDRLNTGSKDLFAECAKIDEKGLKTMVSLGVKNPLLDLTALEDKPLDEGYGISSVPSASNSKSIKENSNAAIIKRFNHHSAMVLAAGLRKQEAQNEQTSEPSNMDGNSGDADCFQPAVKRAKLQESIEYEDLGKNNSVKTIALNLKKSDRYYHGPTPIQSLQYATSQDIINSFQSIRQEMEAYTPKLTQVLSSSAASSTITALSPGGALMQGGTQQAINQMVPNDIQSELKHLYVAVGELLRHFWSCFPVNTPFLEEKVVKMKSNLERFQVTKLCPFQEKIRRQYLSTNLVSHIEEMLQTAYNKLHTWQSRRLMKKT

| effect of a mutation on the interaction | Variant |
| --- | --- |
| disrupting interaction | V390A |

Variants of: B1
Details: with tf2h1_human GTF2H1, P32780
Remark: another data set of the same source

| effect of a mutation on the interaction | Variant |
| --- | --- |
| disrupting interaction | F387A |
